The values below come from US12365738B2, “Method of treating an interleukin-11-associated or -mediated fibrotic disease or condition by administering an anti-interleukin-11 receptor subunit alpha (IL-11RA) antibody” (Lassen Therapeutics, Inc., priority 2021, dated 2025).

A value given as a limit tells only on which side of the number the result lay.

The test system of test [1] is type VI collagen formation (PRO-C6) in fibrotic human PCLS. Kind of test: Fibrotic human precision-cut lung slice (PCLS) model, PRO-C6 ECM remodeling biomarker. Type of test: cell-based. Particulars: for median levels of PRO-C6 compared to the no treatment (media) control: pooled data, all donors and regions, mAb5 0.3, 3.0, 30 μg/mL, nintedanib 1 μM, isotype control 30 μg/mL. The protocol:
Tissue slices were prepared from the subpleural and central region of the fibrotic lung from two human end-stage donors with pulmonary fibrosis (IPF and secondary fibrosis) (see, for example, Hess et al., Toxicol In Vitro. 32:347-61, 2016). For both donors, lung tissue samples from two different regional areas (subpleural and central) were used to generate tissue cores used for PCLS. Adjacent cores were used to achieve serial PCLS for the analysis of one treatment as compared to medium treated PCLS from the same cores. This enables the comparison of densely packed fibrotic areas with fibrotic foci with less affected areas. To ensure the fibrotic status, clinical/demographic information for each patient is provided.
Each treatment was tested with three replicates for each lung region and for each donor.
Preparation and incubation of precision-cut lung slices. Lung lobes were canuled and filled with 37° C. warm 2% low-melting agarose/medium solution. Filled lobes were cooled on ice to polymerise agarose. Tissue cores with a diameter of 8 mm were prepared and cut into approximately 300 μm thick slices using a microtome (Krumdieck tissue slicer, Alabama Research and Development, Muniford, AL, USA or Vibratome OTS-5000, Science Services GmbH, Munich) in Earle's Balanced Salts Solution (EBSS). Tissue slices were incubated in Dulbecco's modified Eagle's medium/nutrient mixture F-12 Ham (DMEM) with L-glutamine and 15 mM HEPES without phenol red. Tissue slices were transferred into petri dishes and washed with DMEM for 2 hours. Medium was changed four times every 30 minutes in order to remove cell debris.
Two PCLS per well were left over night in 500 μL DMEM in 24-well plates for a final washing step. Next day, PCLS were treated with experimental treatments or controls (see Table E5) in 250 μl DMEM/F-12 culture medium for 48 hours under normal cell culture conditions (37° C., 5% CO2). Medium contained 100 units/mL penicillin and 100 μg/mL streptomycin and was not supplemented with fetal calf serum. […]
Extracellular matrix remodeling evaluation. Biomarkers that reflect ECM remodeling were assessed in supernatant by Nordic Bioscience using the following competitive ELISA: PRO-C6 (C-terminal of type VI collagen C5 domain released as type VI collagen is incorporated into the matrix; measured on mesoscale platform [hsPRO-C6]): Reflects type VI collagen formation. […]
Statistics. […] Pooled data are presented as percentage of the “no treatment” control, calculated for individual regions and donors. Statistical significant differences were evaluated on pooled data by Kruskal-Wallis with Dunn's multiple comparisons test, comparing to the “no treatment” control. […]

Another test deals with T1, hIL-11Rα (Homo sapiens, UniProt Q14626).
T1 sequence (Q14626 23-422): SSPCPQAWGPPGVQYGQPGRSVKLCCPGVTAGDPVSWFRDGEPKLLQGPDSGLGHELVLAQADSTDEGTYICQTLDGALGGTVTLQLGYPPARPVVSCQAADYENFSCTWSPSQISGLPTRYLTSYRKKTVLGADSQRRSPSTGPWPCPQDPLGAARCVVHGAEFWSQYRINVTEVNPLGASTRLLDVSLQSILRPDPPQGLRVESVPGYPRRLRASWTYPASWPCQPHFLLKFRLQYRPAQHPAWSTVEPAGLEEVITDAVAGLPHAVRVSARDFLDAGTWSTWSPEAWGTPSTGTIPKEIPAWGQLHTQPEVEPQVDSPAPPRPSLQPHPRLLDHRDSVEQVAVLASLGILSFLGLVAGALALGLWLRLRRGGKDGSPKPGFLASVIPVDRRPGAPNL
Kind of test: Kinetic binding analysis by biolayer interferometry (protein G biosensors, Octet RED96e). The protocol:
Association was carried out in the presence of a 2-fold dilution series of hIL-11Rα and was allowed to proceed for 120 seconds; dissociation was measured for 300 to 1200 seconds.

For test [2], the system named is IL-11 signaling (STAT3 Reporter (Luciferase)-HEK293 cell line). In words: Cell-based STAT3 reporter (luciferase) HEK293 assay for inhibiting IL-11 signaling. Also on record: species or system human. How it is done:
Further testing of the lead mAbs was carried out using a cell-based reporter assay. IL-11 is reported to signal through the STAT3 and ERK pathways. Therefore, a STAT3 reporter cell line in which firefly luciferase gene expression is driven by STAT3 response elements located upstream of a minimal TATA promoter was selected to analyze mAb functional activity. In these cells, IL-11 can activate the endogenous STAT3 allowing it to bind to the STAT3 response elements, inducing transcription of the luciferase reporter gene and resulting in readily detectable luciferase expression. Antibodies to IL-11R which block IL-11 signaling should inhibit expression of IL-11 driven luciferase in these cells.
The STAT3 Reporter (Luciferase)—HEK293 cell line (BPS Bioscience, catalog #79800-P) was grown, passaged, and assayed as per manufacturer's protocols. Cells were added at 25,000 cells per well in a 96-well microtiter dish and incubated at 37° C. for 30-45 min. in 5% CO2 humidified air. Anti-IL-11R mAbs were added as a 3-fold dilution series in duplicate columns or rows, and plates were returned to the incubator for an additional 1 h at 37° C. after which 40 ng/mL IL-11 was added to each well to initiate the signal transduction cascade and luciferase production. Plates were incubated for 18-24 hours at 37° C. and luciferase was detected using a One-Step Luciferase Assay System (BPS Bioscience, cat. no. 60690-1) as per manufacturer's instructions.

The target in another test is T2, hIL-11R (Homo sapiens, UniProt Q14626).
T2 sequence (Q14626 23-422): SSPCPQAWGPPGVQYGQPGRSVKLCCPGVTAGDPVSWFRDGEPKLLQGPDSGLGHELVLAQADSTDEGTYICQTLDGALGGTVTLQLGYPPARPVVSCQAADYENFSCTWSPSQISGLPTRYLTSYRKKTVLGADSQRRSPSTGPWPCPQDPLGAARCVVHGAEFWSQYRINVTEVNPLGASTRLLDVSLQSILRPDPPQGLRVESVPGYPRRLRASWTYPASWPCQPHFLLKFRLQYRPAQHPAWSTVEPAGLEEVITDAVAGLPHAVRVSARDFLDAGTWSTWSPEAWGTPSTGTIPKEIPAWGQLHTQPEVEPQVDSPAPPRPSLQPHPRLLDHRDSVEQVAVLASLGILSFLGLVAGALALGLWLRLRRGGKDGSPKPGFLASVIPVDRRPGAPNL
In words: Alternate biolayer interferometry assay (AHC biosensors) ranking mAbs 16-32 against mAb5. Type of test: binding. The following applies: AHC biosensors. The source says:
A further series of antibodies were designed in which the residue at Kabat position 31 of the heavy chain was varied (mAbs 16-32). In this case an alternate biolayer interferometry assay was used to initially rank the antibodies compared to mAb5, the closest relative in sequence to mAbs 16-32. MAbs were loaded onto anti-human constant domain (AHC) biosensors (FortéBio) in 10×kinetics buffer consisting of PBS, 0.1% BSA, 0.02% polysorbate 20 (TWEEN™) for 120 s to achieve a spectral shift value of 0.8 to 1.2 nm. Association was carried out in the presence of 2-fold dilution series of hIL-11R and was allowed to proceed for 120 s. Dilution series started 10 nM. The dissociation in 10×kinetics buffer for 1200 s. Binding kinetic measurements were taken on an Octet RED96e instrument.
For orientation: Biolayer interferometry detects binding as a change in optical thickness at a sensor tip.

`COC(=O)c1ccc2c(c1)NC(=O)/C2=C(\Nc1ccc(N(C)C(=O)CN2CCN(C)CC2)cc1)c1ccccc1` [nintedanib, Nintedanib, reference compound]: the “median levels of PRO-C6 compared to the no treatment (media) control” value in test [1] (48 hours) is listed as “decreased”.

B1: mAb5: anti-IL-11Rα antibody, human IgG4 (S228P), kappa; VH SEQ ID NO: 201, VL SEQ ID NO: 202 (antibody, V domains shown)
VH: EVQLLESGGGLVQPGGSLRLSCAASGFTFSWYSMTWVRQAPGKGLEWVSSIVPYGDLTQYADSVKGRFTISRDNSKNTLYLQMNSLRAEDTAVYYCAKGPGWGSFDLWGRGTLVTVSS
VL: DIQMTQSPSSLSASVGDRVTITCQASQDINNYLNWYQQKPGKAPKLLIYDASNLQTGVPSRFSGSGSGTDFTFTISSLQPEDIATYYCQQHESQSPTFGPGTKVDIK
modifications: IgG4 S228P kappa constant regions; mAb5 VH Chain; mAb5 VL Chain
With B1, in the test with hIL-11Rα, the ka turned out to be 63700 M⁻¹ s⁻¹ and the kd is <1e-07 s⁻¹. Further, the “potency at inhibiting IL-11 signaling relative to TS7 / 8E2 (in words)” value in test [2] is listed as “more potent at inhibiting IL-11 signaling than either of TS7 or 8E2”. In the test with hIL-11R, this molecule yielded a ka of 490000 M⁻¹ s⁻¹ and a kd of 2.5e-05 s⁻¹. In addition, the “dose relation of PRO-C6 reduction” value in test [1] (0.3, 3.0, 30 μg/mL, 48 hours) was “reduced PRO-C6 in a dose-dependent manner”. Moreover, the “median levels of PRO-C6 compared to the no treatment (media) control” value in test [1] (48 hours) is “decreased”. Besides, the “effects on ECM remodeling relative to nintedanib” value in test [1] (in several cases) is on record as “better effects on ECM remodeling”.
